# According to patent CN116082503A:
# Biological target: T细胞表面未知蛋白 (unknown protein on the surface of CD3+ T cells)
# Test: cell-based or functional assay
substance,measurement,value
IGSF9-ECD-His (带有His标签的人IGSF9胞外区蛋白) (receptor),"T细胞增殖抑制, 剂量依赖 (dose at which inhibition of T cell proliferation becomes evident)",> 0.5 µg
